Test system: O=C(O)P(=O)(O)O
Settings: Human immunodeficiency virus 1
Description: Inhibition of HIV1 reverse transcriptase E89K mutant mediated single strand incorporation into DNA at +16 position using polypurine tract PPT+16/PPT57 template after 7 mins by gel based assay

Substance: Human immunodeficiency virus type 1 reverse transcriptase (Human immunodeficiency virus 1) (from UniProt Q72547) E89K
- kcat/Km: 6000 M⁻¹ s⁻¹
